Assay [1] addresses Cynomolgus CD3ε/δ (soluble recombinant cynomolgus monkey CD3) (cynomolgus monkey) (UniProt Q95LI5). Description: SPR (BIAcore 3000), antigen immobilized on the chip, DART-A injected, 1:1 Langmuir fit, mean of 3 experiments. On the technique in general: SPR reads the build-up and loss of mass on a sensor chip optically.
Assay [2] has as its target Human CD3ε/δ (soluble recombinant human CD3) (human) (UniProt P07766). The description is as above.
Assay [3] concerns the target Cynomolgus CD3ε/δ (soluble recombinant cynomolgus monkey CD3) (cynomolgus monkey) (UniProt Q95LI5). Description: BIACORE surface plasmon resonance, recombinant cynomolgus monkey CD3 directly immobilized, 1:1 binding fit.
Assay [4] deals with Human CD3ε/δ (soluble recombinant human CD3) (human) (UniProt P07766). As to the kind of experiment: BIACORE surface plasmon resonance, recombinant human CD3 directly immobilized, 1:1 binding fit.
Sequence of Human CD3ε/δ (soluble recombinant human CD3) (human) (P07766 23-126, stated change not applied, chain 1 of 2): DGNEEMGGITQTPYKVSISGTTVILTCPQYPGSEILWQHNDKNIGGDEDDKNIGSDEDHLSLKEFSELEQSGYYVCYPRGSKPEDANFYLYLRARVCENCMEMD
Sequence of Human CD3ε/δ (soluble recombinant human CD3) (human) (P04234 22-105, stated change not applied, chain 2 of 2, further chain): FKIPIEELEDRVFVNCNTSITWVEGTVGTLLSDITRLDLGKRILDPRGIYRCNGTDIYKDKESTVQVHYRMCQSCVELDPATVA

Sequence of Cynomolgus CD3ε/δ (soluble recombinant cynomolgus monkey CD3) (cynomolgus monkey) (Q95LI5 22-117, stated change not applied, chain 1 of 2): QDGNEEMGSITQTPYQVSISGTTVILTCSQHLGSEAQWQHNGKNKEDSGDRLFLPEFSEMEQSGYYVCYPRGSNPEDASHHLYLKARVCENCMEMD
Sequence of Cynomolgus CD3ε/δ (soluble recombinant cynomolgus monkey CD3) (cynomolgus monkey) (Q95LI8 22-105, stated change not applied, chain 2 of 2, further chain): as the sequence (P04234 22-105, stated change not applied, chain 2 of 2, further chain) above, with I5V, N15K, I20V, S32T, D33N, I34N, T64A, S74N, V83L counted along it

B1: Sequence-Optimized CD123 × CD3 Bi-Specific Diabody (DART-A) (bispecific antibody)
chain 1: QAVVTQEPSLTVSPGGTVTLTCRSSTGAVTTSNYANWVQQKPGQAPRGLIGGTNKRAPWTPARFSGSLLGGKAALTITGAQAEDEADYYCALWYSNLWVFGGGTKLTVLGGGGSGGGGEVQLVQSGAELKKPGASVKVSCKASGYTFTDYYMKWVRQAPGQGLEWIGDIIPSNGATFYNQKFKGRVTITVDKSTSTAYMELSSLRSEDTAVYYCARSHLLRASWFAYWGQGTLVTVSSGGCGGGEVAALEKEVAALEKEVAALEKEVAALEK
chain 2: DFVMTQSPDSLAVSLGERVTMSCKSSQSLLNSGNQKNYLTWYQQKPGQPPKLLIYWASTRESGVPDRFSGSGSGTDFTLTISSLQAEDVAVYYCQNDYSYPYTFGQGTKLEIKGGGSGGGGEVQLVESGGGLVQPGGSLRLSCAASGFTFSTYAMNWVRQAPGKGLEWVGRIRSKYNNYATYYADSVKDRFTISRDDSKNSLYLQMNSLKTEDTAVYYCVRHGNFGNSYVSWFAYWGQGTLVTVSSGGCGGGKVAALKEKVAALKEKVAALKEKVAALKE
For B1, the Kd in assay [1] is 9.2 nM; in assay [2] it was 9 nM; in assay [3], 9 nM; in assay [4], 12.3 nM. The dissociation rate constant (koff) in assay [1] and in assay [2] was 0.005 s⁻¹ throughout. The kon in assay [1] was 550000 M⁻¹ s⁻¹; in assay [2] it was 570000 M⁻¹ s⁻¹.

Usually Kd stands for the constant that tells how readily two partners part at equilibrium. The koff is a measure of how fast the partners let go of each other. For orientation: kon means a measure of how fast the partners come together.
